A short description of the data set: Elution rate: reverse-phase HPLC peak area of the peptide after vs before 0.22 μm filtration. The class given is physicochemical. On the procedure: Peptide 1, Peptide 2, and Peptide 3 (100 μg each) were separately added to 410 mM arginine solutions (pH 11) to adjust each total amount to 700 μL. Molarities in these solutions are 94 μM (Peptide 1), 99 μM (Peptide 2), and 161 μM (Peptide 3). […] Then, 200 μL each of the sample solutions was filtered with a filter Millex (registered trademark)-GV (trade name, manufactured by Nihon Millipore) with a pore size of 0.22 μm. The sample solutions before filtration and the sample solutions after filtration were respectively analyzed by reverse-phase HPLC. Peak area percentages were determined from the peak area values of the peptides before and after filtration and used as elution rates. HPLC analytical conditions are shown below.
For a comparative example, Peptide 1, Peptide 2, and Peptide 3 were separately dissolved in each of water and dimethylsulfoxide (DMSO) to prepare samples having a peptide concentration of 94 μM, 99 μM, or 161 μM, which were studied in the same way as above.
Column: Cosmosil 5C18-AR-300 (Manufactured by Nacalai Tesque, 4.6×150 mm)
Detection: ultraviolet and visible spectrophotometer (detection wavelength: 220 nm)
HPLC system: Alliance (manufactured by Waters, Japan)
Eluant A: 0.1% trifluoroacetic acid (hereinafter, TFA)/purified water
Eluant B: 0.1% TFA/acetonitrile
Concentration gradient: 0 min (Eluant B 20%)→25 min (Eluant B 70%)
Arginine, lysine, and histidine were separately dissolved in water to prepare 410 mM arginine solution, 489 mM lysine solution, and 90 mM histidine solution. An aqueous solution of sodium hydroxide and hydrochloric acid were added to these solutions to adjust the pH of the aqueous solutions of lysine and histidine to 8, 9, 10, and 11, and the pH of the aqueous solution of arginine to 8, 8.5, 9, 9.5, 10, and 11. Subsequently, Peptide 1 was added to these aqueous solutions to prepare 94 μM Peptide 1 solutions. […] Then, 200 μL each of the sample solutions was filtered with a filter Millex (registered trademark)-GV (trade name, manufactured by Nihon Millipore) with a pore size of 0.22 μm. The sample solutions before filtration and the sample solutions after filtration were respectively analyzed by reverse-phase HPLC. Peak area percentages were determined from the peak area values of Peptide 1 before and after filtration and used as elution rates. HPLC analytical conditions were the same as the conditions described in Example 1.
Imidazole was dissolved in water to prepare 1 mM imidazole solution. pH was adjusted to 8, 8.5, and 9 by adding an appropriate amount of hydrochloric acid to this solution. Subsequently, Peptide 1 was added to these imidazole solutions to prepare 94 μM Peptide 1 solutions. […] Then, 200 μL each of the sample solutions was filtered with a filter Millex (registered trademark)-GV (trade name, manufactured by Nihon Millipore) with a pore size of 0.22 μm. The sample solutions before filtration and the sample solutions after filtration were respectively analyzed by reverse-phase HPLC. Peak area percentages were determined from the peak area values of Peptide 1 before and after filtration and used as elution rates. HPLC analytical conditions were the same as the conditions described in Example 1.
Disodium hydrogen phosphate, sodium dihydrogen citrate, sodium ascorbate, and imidazole were separately dissolved in water to prepare their respective aqueous solutions with pH 9 at concentrations described in Table 4. pH adjustment was performed with hydrochloric acid and an aqueous solution of sodium hydroxide. The above-described aqueous solutions were separately added to the weighed Peptide 1 to prepare 94 μM Peptide 1 solutions. […] These Peptide 1 solutions were compared with the Peptide 1 sample solutions using the respective aqueous solutions of disodium hydrogen phosphate, sodium dihydrogen citrate, and sodium ascorbate used as comparative controls. […]

Square brackets hold non-standard residues; d marks the D form. Ends that are not written are not given here. * marks the point of attachment. Nle = CCCC[C@H](N)C(=O)O; For = O=C* Some results are limits rather than exact numbers.

As to “formyl-Nle-Leu-Phe-Nle-Tyr-Lys(NH2)-ε(-Ser-D-Arg-Asp-Cys-Asp-Asp) (For-[Nle]LF[Nle]YKS[dR]DCDD; also: Lys(NH2): Lys α-carboxamide, Ser-D-Arg-Asp-Cys-Asp-Asp branch on Lys ε-amine) [Peptide 1]”, the Elution rate runs as follows: (1 mM imidazole, pH 8, 94 μM peptide) 64.9%; (90 mM histidine, pH 9, 94 μM peptide) 85.9%; (90 mM histidine, pH 10, 94 μM peptide) 90.7%; (90 mM histidine, pH 11, 94 μM peptide) 96.7%; (100 mM disodium hydrogen phosphate, pH 9, 94 μM peptide) 53.8%; (410 mM arginine solution, pH 11, peptide 94/99/161 μM) 100.8%. Moreover, the Elution rate turned out to be 43.8% (410 mM arginine, pH 8.5, 94 μM peptide); 93.8% (410 mM arginine, pH 9, 94 μM peptide); 95.4% (410 mM arginine, pH 9.5, 94 μM peptide); 98.8% (410 mM arginine, pH 10, 94 μM peptide); 89.0% (489 mM lysine, pH 9, 94 μM peptide); 83.6% (489 mM lysine, pH 10, 94 μM peptide). The Elution rate was 85.9% (489 mM lysine, pH 11, 94 μM peptide); ≥ 85% (aqueous solutions of arginine, lysine and histidine at pH 9 or more); 98.6% (solvent DMSO, peptide 94/99/161 μM).

Source of the values: US7854918B2, “Composition for medical use having improved water-solubility of peptide and metal-labeling efficiency and preparation for medical use comprising metal-labeled peptide” (Nihon Medi-Physics Co., Ltd., priority 2004, dated 2010).
